This note sets out measurements from publication PMC10644391 (2023).

For the test, the target named is T1, HEG1 cytoplasmic tail 7-mer peptide cytoplasmic tail 7-mer (Homo sapiens, UniProt Q9ULI3, also: Cy5-labelled).
T1 chain: SRRRDYF
The experiment in a line: fluorescence polarization. (In general: In fluorescence polarisation assays a small probe gives low polarisation when free and higher when bound to something large.)

Ends that are not written are not given here.

B1: KRIT1 417-736 (protein)
chain: KPYEKVRIYRMDGSYRSVELKHGNNTTVQQIMEGMRLSQETQQYFTIWICSENLSLQLKPYHKPLQHVRDWPEILAELTNLDPQRETPQLFLRRDVRLPLEVEKQIEDPLAILILFDEARYNLLKGFYTAPDAKLITLASLLLQIVYGNYESKKHKQGFLNEENLKSIVPVTKLKSKAPHWTNRILHEYKNLSTSEGVSKEMHHLQRMFLQNCWEIPTYGAAFFTGQIFTKASPSNHKVIPVYVGVNIKGLHLLNMETKALLISLKYGCFMWQLGDTDTCFQIHSMENKMSFIVHTKQAGLVVKLLMKLNGQLMPTERNS
Molecule B1 had a Kd of 13 nM.

A word on the Kd: it is the free concentration of one partner at which half of the binding sites on the other are occupied at equilibrium, for simple one-to-one binding. A higher Kd goes with lower affinity.
